Experimental data as given in patent US20110190196A1 (University of California, published 2011).
Read-outs that look alike come from different tables or passages of the source.

Tests used:
Test in all cases: cell-based or functional assay
[1] = biological target: T1, ATP-binding cassette transporter A1 (ABCA1) (UniProt P41233 1-2261, limits assumed)
[2] = biological target: T1, ATP-binding cassette transporter A1 …; remark: listed apart in the source
[3] = biological target: T1, ATP-binding cassette transporter A1 …; remark: listed apart in the source
[4] = biological target: T1, ATP-binding cassette transporter A1 …; remark: listed apart in the source
[5] = biological target: T1, ATP-binding cassette transporter A1 …; remark: listed apart in the source
[6] = biological target: T1, ATP-binding cassette transporter A1 …; remark: listed apart in the source

T1 sequence (P41233 whole entry): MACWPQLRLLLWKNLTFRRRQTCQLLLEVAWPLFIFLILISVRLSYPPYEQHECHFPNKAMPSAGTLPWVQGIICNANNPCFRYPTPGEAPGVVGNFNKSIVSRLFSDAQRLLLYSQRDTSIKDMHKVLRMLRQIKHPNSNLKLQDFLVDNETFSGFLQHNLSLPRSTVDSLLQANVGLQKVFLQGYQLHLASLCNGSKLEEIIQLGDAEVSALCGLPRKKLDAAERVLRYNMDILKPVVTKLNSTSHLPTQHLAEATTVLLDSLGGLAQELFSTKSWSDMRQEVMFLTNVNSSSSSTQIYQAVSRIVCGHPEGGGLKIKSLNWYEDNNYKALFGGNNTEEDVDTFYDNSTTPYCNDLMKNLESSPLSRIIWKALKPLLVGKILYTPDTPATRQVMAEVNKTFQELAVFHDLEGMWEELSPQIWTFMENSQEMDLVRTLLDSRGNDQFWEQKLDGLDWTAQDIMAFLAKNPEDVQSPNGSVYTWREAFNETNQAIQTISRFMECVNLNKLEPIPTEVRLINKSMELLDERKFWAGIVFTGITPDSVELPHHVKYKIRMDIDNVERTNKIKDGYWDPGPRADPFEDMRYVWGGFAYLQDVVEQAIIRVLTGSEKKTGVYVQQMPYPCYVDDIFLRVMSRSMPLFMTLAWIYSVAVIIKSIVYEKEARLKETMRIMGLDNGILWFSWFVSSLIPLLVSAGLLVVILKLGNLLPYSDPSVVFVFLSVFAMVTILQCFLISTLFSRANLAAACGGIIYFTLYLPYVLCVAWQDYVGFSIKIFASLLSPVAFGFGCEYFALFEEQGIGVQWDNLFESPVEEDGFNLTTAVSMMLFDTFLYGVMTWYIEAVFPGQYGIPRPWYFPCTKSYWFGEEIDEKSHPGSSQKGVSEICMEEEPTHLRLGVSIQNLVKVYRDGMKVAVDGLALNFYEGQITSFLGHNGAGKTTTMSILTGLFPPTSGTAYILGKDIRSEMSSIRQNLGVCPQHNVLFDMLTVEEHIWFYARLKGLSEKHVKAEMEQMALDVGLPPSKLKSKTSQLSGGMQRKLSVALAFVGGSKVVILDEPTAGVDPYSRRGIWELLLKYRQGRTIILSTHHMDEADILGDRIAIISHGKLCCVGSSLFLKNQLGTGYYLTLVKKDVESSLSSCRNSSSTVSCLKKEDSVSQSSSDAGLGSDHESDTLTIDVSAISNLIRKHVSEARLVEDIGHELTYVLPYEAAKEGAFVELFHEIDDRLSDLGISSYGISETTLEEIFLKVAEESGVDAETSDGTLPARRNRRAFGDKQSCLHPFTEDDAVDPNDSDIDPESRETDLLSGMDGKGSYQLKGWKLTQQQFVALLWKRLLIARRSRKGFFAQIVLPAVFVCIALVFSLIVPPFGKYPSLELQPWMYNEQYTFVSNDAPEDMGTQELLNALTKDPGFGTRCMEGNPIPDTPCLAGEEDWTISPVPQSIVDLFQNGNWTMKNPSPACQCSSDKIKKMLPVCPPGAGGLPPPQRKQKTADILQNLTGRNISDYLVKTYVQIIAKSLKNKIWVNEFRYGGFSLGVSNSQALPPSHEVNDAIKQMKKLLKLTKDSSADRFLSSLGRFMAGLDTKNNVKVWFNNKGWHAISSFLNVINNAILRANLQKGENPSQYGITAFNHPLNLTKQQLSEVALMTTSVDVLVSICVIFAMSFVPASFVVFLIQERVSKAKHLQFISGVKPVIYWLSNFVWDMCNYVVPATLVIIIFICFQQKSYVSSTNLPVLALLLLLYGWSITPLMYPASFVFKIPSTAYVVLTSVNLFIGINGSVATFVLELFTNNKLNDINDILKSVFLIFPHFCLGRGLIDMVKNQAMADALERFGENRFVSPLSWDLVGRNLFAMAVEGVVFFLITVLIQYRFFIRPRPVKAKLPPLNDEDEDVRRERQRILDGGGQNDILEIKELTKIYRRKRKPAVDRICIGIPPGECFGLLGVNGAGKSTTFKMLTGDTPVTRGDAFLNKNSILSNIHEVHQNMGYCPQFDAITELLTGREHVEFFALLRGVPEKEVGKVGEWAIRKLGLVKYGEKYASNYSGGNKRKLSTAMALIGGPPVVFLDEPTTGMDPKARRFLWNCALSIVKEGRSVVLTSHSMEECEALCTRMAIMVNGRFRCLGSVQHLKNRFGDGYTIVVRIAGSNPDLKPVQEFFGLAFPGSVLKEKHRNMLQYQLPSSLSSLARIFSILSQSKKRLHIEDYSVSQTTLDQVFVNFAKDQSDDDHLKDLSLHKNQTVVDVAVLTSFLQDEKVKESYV

Molecule | Km of cholesterol efflux stimulation, mass basis (4 h efflux data, cAMP-treated J774 cells) [1] [µg/mL] | Km of cholesterol efflux stimulation, molar basis [1] | % cholesterol efflux/4 hours at 0.1 µg/ml [2] [%] | % cholesterol efflux/4 hours at 0.3 µg/ml [2] [%] | % cholesterol efflux/4 hours at 1.0 µg/ml [2] [%] | % cholesterol efflux/4 hours at 3.0 µg/ml [2] [%] | % cholesterol efflux/4 hours at 10 µg/ml [2] [%] | % cholesterol efflux/4 hours at 30 µg/ml [2] [%] | % cholesterol efflux/8 hours, No cAMP [3] [%] | % cholesterol efflux/8 hours, Plus cAMP [3] [%] | % cholesterol efflux/4 hours at 0.1 µg/ml [4] [%] | % cholesterol efflux/4 hours at 0.3 µg/ml [4] [%] | % cholesterol efflux/4 hours at 1.0 µg/ml [4] [%] | % cholesterol efflux/4 hours at 3.0 µg/ml [4] [%] | % cholesterol efflux/4 hours at 10 µg/ml [4] [%] | % cholesterol efflux/4 hours at 30 µg/ml [4] [%] | efficiency of cholesterol efflux against apoA-I, mass basis [5] [fold] | % cholesterol efflux/8 hours, +cAMP [6] [%] | % cholesterol efflux/8 hours, -cAMP [6] [%]
lipid-free apolipoprotein(apo)A-I (from UniProt P02647 19-267) (ligand) | 3.4 | 0.12 | – | – | – | – | – | – | – | – | – | – | – | – | – | – | – | – | –
ELRERLEAWFELFREFLERF [N1154-1] | – | – | 0.1 | 0.41 | 2.06 | 5.11 | 4.44 | 3.67 | 1.85 | 5.2 | – | – | – | – | – | – | – | – | –
ELRDRLEAWFDLFREFLERF [N1154-4] | – | – | 0 | 1.3 | 3.51 | 4.14 | 5.02 | 3.65 | 2.59 | 11.4 | – | – | – | – | – | – | – | – | –
ELREKLEAWFELFREFLERF [SEQ ID NO:2 peptide] | – | – | – | – | – | – | – | – | – | – | 0.15 | 0.52 | 1.72 | 4.6 | 3.62 | 3.66 | ~5 | 5.26 | 2.29
DLRDKLDAWFDLFRDFLDRF [N1154-3] | – | – | 0 | 0.19 | 1.31 | 2.66 | 2.12 | 2.21 | 1.61 | 3.29 | – | – | – | – | – | – | – | – | –
DLRDRLDAWFDLFRDFLDRF [N1154-5] | – | – | 0 | 1.92 | 2.77 | 5.28 | 5.29 | 3.53 | 3.06 | 9.88 | – | – | – | – | – | – | – | – | –
ELRDKLEAWFDLFREFLERF [N1154-2] | – | – | 0.03 | 0.51 | 2.17 | 2.59 | 2.14 | 1.66 | 1.47 | 3 | – | – | – | – | – | – | – | – | –
